{"source": "patent US20210071139A1", "test_in_all_cases": "TOX IP-MS, EL4 nuclear extract, MiST", "key": {"Acad9": {"target": "Acad9 (UniProt Q8JZN5)"}, "Acot8": {"target": "Acot8 (UniProt P58137)"}, "Acsl4": {"target": "Acsl4 (UniProt Q9QUJ7)", "sequence (Q9QUJ7 whole entry)": "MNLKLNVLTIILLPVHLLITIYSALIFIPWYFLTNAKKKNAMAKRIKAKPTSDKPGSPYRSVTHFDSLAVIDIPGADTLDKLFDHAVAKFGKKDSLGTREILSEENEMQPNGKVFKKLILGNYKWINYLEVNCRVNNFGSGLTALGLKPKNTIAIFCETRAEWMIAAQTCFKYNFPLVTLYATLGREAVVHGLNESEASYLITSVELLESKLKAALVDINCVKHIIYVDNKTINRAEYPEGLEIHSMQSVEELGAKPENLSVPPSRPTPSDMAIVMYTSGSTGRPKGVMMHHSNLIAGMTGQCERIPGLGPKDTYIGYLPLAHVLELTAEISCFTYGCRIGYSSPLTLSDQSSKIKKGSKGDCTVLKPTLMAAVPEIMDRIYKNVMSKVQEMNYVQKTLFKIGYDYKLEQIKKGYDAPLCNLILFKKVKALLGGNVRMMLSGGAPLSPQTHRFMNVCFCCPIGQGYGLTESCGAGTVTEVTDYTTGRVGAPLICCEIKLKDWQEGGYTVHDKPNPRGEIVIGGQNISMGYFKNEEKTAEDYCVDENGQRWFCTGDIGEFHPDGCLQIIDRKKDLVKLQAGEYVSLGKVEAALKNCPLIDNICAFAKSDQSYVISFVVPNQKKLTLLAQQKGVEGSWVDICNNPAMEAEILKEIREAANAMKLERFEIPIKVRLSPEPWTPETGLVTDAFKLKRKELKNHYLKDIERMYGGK"}, "Cacybp": {"target": "Cacybp (UniProt Q9CXW3)", "sequence (Q9CXW3 2-229 limits assumed)": "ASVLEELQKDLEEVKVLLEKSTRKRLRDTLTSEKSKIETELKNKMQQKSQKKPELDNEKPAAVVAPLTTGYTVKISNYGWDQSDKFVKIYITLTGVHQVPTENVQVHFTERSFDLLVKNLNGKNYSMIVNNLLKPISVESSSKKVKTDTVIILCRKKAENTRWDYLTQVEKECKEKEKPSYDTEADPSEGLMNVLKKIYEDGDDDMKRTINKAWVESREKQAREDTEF"}, "Cad": {"target": "Cad (UniProt B2RQC6)"}, "Cdadc1": {"target": "Cdadc1 (UniProt Q8BMD5)"}, "Cdc73": {"target": "Cdc73 (UniProt Q8JZM7)"}, "Eif5": {"target": "Eif5 (UniProt P59325)"}, "Fubp1": {"target": "Fubp1 (UniProt Q91WJ8)"}, "Fxr1": {"target": "Fxr1 (UniProt Q61584)", "sequence (Q61584 2-677 limits assumed)": "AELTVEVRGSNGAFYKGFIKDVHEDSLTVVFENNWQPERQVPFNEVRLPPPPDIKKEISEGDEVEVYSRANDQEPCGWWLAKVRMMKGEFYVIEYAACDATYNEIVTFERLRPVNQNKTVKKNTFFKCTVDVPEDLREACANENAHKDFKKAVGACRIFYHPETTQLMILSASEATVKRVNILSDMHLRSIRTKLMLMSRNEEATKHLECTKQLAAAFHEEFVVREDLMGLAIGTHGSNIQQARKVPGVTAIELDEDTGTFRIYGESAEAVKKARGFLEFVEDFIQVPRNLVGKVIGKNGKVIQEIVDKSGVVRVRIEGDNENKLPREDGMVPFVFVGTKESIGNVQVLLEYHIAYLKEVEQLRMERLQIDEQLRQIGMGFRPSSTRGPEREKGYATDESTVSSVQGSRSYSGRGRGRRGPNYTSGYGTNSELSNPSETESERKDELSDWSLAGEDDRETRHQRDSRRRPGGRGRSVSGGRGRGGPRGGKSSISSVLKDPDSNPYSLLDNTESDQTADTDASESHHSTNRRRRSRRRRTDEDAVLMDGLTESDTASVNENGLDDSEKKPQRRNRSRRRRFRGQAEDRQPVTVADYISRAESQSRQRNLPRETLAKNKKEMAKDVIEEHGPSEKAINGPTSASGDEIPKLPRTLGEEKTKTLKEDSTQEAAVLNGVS"}, "Hcfc1": {"target": "Hcfc1 (UniProt Q61191)"}, "Ikbkap": {"target": "Ikbkap (UniProt Q7TT37)"}, "Ing4": {"target": "Ing4 (UniProt Q8C0D7)"}, "Jade2": {"target": "Jade2 (UniProt Q6ZQF7)"}, "Mphosph10": {"target": "Mphosph10 (UniProt Q810V0)"}, "Myef2": {"target": "Myef2 (UniProt Q8C854)", "sequence (Q8C854 whole entry)": "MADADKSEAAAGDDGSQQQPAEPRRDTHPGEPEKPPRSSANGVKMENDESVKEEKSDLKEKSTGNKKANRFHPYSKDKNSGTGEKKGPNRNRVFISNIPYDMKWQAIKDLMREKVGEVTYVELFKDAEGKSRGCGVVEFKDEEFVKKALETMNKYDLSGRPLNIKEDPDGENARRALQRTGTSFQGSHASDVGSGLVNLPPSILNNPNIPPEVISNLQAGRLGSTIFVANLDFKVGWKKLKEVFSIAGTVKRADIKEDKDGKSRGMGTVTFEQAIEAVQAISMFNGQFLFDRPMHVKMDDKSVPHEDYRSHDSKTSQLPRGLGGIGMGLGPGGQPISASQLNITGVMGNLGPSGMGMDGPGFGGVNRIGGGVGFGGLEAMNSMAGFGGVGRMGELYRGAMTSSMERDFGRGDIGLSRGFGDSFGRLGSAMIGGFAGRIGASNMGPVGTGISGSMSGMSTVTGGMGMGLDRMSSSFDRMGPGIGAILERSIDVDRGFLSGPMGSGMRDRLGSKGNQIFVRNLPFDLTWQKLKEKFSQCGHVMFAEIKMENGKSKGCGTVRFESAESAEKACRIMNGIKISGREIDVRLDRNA"}, "Orc5": {"target": "Orc5 (UniProt Q9WUV0)"}, "Ppa1": {"target": "Ppa1 (UniProt Q9D819)", "sequence (Q9D819 2-289 limits assumed)": "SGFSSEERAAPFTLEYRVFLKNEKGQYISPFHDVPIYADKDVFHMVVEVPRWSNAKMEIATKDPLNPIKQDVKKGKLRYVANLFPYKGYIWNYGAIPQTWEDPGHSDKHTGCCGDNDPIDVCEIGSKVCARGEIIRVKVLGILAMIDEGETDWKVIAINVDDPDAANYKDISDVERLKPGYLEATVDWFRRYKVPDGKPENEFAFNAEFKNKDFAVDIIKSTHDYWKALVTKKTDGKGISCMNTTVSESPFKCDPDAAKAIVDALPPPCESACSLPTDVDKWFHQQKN"}, "Ppie": {"target": "Ppie (UniProt Q9QZH3)"}, "Rcn2": {"target": "Rcn2 (UniProt Q8BP92)"}, "Rpl37a": {"target": "Rpl37a (UniProt P61514)"}, "Sap130": {"target": "Sap130 (UniProt Q8BIH0)"}, "Sdcbp": {"target": "Sdcbp (UniProt O08992)", "sequence (O08992 2-299 limits assumed)": "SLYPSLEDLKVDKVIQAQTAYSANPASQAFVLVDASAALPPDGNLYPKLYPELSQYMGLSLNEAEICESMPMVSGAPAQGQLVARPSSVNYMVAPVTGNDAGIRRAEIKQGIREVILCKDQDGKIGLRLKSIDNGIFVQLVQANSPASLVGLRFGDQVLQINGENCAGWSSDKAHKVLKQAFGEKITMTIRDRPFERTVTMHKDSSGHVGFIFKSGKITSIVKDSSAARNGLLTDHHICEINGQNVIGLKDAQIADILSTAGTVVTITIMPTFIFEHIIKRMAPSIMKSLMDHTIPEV"}, "Srrt": {"target": "Srrt (UniProt Q99MR6)", "sequence (Q99MR6 2-875 limits assumed)": "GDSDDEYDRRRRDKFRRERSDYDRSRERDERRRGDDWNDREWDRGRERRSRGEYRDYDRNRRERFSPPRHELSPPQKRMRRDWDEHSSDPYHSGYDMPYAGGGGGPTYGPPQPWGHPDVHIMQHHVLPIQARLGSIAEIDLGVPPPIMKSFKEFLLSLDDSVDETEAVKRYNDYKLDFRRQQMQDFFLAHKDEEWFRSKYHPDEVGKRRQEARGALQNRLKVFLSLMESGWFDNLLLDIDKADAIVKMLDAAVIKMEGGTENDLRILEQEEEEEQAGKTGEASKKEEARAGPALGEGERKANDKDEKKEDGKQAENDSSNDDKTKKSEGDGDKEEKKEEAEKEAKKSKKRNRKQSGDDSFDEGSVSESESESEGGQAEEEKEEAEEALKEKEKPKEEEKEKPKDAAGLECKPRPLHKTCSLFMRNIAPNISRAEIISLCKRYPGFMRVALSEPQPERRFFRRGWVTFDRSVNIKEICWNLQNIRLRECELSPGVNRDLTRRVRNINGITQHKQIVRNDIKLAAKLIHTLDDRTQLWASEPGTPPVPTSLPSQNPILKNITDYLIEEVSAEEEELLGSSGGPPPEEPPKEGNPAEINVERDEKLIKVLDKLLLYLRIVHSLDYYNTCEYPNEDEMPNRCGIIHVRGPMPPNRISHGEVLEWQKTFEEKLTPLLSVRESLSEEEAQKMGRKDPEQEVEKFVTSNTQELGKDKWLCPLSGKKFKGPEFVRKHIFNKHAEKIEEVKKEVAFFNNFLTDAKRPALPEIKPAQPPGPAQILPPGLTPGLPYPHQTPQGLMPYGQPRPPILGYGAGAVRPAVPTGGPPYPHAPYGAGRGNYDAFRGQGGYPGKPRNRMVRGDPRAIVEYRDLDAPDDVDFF"}, "Thoc5": {"target": "Thoc5 (UniProt Q8BKT7)", "sequence (Q8BKT7 2-683 limits assumed)": "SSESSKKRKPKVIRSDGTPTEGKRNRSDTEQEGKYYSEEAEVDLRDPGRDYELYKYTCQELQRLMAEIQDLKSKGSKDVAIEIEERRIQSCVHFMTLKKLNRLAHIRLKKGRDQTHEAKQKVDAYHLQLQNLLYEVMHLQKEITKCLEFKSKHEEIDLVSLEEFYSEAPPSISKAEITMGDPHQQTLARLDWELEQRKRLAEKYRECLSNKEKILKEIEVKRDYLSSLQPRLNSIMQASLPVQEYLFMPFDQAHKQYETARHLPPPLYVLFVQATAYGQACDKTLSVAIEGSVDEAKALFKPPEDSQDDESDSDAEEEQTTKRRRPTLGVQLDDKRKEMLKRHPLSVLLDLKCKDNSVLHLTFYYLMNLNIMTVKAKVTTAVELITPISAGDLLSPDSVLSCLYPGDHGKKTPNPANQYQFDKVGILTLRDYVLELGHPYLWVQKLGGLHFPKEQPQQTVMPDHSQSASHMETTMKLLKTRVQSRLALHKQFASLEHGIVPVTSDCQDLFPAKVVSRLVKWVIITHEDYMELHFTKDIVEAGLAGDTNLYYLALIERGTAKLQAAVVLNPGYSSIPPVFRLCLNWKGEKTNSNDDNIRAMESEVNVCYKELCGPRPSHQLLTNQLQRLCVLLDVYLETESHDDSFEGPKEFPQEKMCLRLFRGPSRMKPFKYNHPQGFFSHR"}, "Zfp219": {"target": "Zfp219 (UniProt Q6IQX8)"}, "Zwilch": {"target": "Zwilch (UniProt Q8R060)", "sequence (Q8R060 whole entry)": "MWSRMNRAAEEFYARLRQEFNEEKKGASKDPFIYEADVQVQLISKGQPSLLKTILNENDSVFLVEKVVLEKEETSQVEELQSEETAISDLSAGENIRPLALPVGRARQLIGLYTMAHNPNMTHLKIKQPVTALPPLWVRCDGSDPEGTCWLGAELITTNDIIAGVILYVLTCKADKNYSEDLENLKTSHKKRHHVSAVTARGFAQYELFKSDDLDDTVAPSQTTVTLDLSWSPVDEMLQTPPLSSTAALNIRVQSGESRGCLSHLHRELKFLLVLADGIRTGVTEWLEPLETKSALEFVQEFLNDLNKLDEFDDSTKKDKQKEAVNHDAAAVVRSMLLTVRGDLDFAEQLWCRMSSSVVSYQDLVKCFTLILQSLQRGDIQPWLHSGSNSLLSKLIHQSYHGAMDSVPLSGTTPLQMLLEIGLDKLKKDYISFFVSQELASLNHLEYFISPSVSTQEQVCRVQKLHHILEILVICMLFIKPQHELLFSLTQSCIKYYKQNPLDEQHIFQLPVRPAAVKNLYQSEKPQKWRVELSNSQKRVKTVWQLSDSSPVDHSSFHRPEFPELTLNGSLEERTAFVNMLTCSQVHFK"}}}
{"substance": "Tox (from UniProt Q66JW3 1-526)", "values": [{"measurement": "Abundance", "setting": "Acad9", "result": "7.35e-06"}, {"measurement": "MiST Score", "setting": "Acad9", "result": 0.919}, {"measurement": "Reproducibility", "setting": "Acad9", "result": 0.846}, {"measurement": "Specificity", "setting": "Acad9", "result": 0.959}, {"measurement": "Abundance", "setting": "Acot8", "result": "2.29e-05"}, {"measurement": "MiST Score", "setting": "Acot8", "result": 0.989}, {"measurement": "Reproducibility", "setting": "Acot8", "result": 0.983}, {"measurement": "Specificity", "setting": "Acot8", "result": 1}, {"measurement": "Abundance", "setting": "Acsl4", "result": "2.9e-06"}, {"measurement": "MiST Score", "setting": "Acsl4", "result": 0.968}, {"measurement": "Reproducibility", "setting": "Acsl4", "result": 0.914}, {"measurement": "Specificity", "setting": "Acsl4", "result": 1}, {"measurement": "Abundance", "setting": "Cacybp", "result": "3.38e-05"}, {"measurement": "MiST Score", "setting": "Cacybp", "result": 0.944}, {"measurement": "Reproducibility", "setting": "Cacybp", "result": 0.837}, {"measurement": "Specificity", "setting": "Cacybp", "result": 1}, {"measurement": "Abundance", "setting": "Cad", "result": "2.65e-07"}, {"measurement": "MiST Score", "setting": "Cad", "result": 0.906}, {"measurement": "Reproducibility", "setting": "Cad", "result": 0.714}, {"measurement": "Specificity", "setting": "Cad", "result": 1}, {"measurement": "Abundance", "setting": "Cdadc1", "result": 0.00034}, {"measurement": "MiST Score", "setting": "Cdadc1", "result": 0.95}, {"measurement": "Reproducibility", "setting": "Cdadc1", "result": 0.882}, {"measurement": "Specificity", "setting": "Cdadc1", "result": 0.988}, {"measurement": "Abundance", "setting": "Cdc73", "result": "4.06e-05"}, {"measurement": "MiST Score", "setting": "Cdc73", "result": 0.896}, {"measurement": "Reproducibility", "setting": "Cdc73", "result": 0.886}, {"measurement": "Specificity", "setting": "Cdc73", "result": 0.908}, {"measurement": "Abundance", "setting": "Eif5", "result": "1.08e-05"}, {"measurement": "MiST Score", "setting": "Eif5", "result": 0.985}, {"measurement": "Reproducibility", "setting": "Eif5", "result": 0.971}, {"measurement": "Specificity", "setting": "Eif5", "result": 1}, {"measurement": "Abundance", "setting": "Fubp1", "result": "4.54e-06"}, {"measurement": "MiST Score", "setting": "Fubp1", "result": 0.984}, {"measurement": "Reproducibility", "setting": "Fubp1", "result": 0.966}, {"measurement": "Specificity", "setting": "Fubp1", "result": 1}, {"measurement": "Abundance", "setting": "Fxr1", "result": "1.59e-05"}, {"measurement": "MiST Score", "setting": "Fxr1", "result": 0.915}, {"measurement": "Reproducibility", "setting": "Fxr1", "result": 0.924}, {"measurement": "Specificity", "setting": "Fxr1", "result": 0.919}, {"measurement": "Abundance", "setting": "Hcfc1", "result": "4.9e-07"}, {"measurement": "MiST Score", "setting": "Hcfc1", "result": 0.964}, {"measurement": "Reproducibility", "setting": "Hcfc1", "result": 0.901}, {"measurement": "Specificity", "setting": "Hcfc1", "result": 1}, {"measurement": "Abundance", "setting": "Ikbkap", "result": "1.13e-06"}, {"measurement": "MiST Score", "setting": "Ikbkap", "result": 0.913}, {"measurement": "Reproducibility", "setting": "Ikbkap", "result": 0.737}, {"measurement": "Specificity", "setting": "Ikbkap", "result": 1}, {"measurement": "Abundance", "setting": "Ing4", "result": 0.00024}, {"measurement": "MiST Score", "setting": "Ing4", "result": 0.987}, {"measurement": "Reproducibility", "setting": "Ing4", "result": 0.977}, {"measurement": "Specificity", "setting": "Ing4", "result": 1}, {"measurement": "Abundance", "setting": "Jade2", "result": "4.26e-06"}, {"measurement": "MiST Score", "setting": "Jade2", "result": 0.937}, {"measurement": "Reproducibility", "setting": "Jade2", "result": 0.815}, {"measurement": "Specificity", "setting": "Jade2", "result": 1}, {"measurement": "Abundance", "setting": "Mphosph10", "result": "1.33e-05"}, {"measurement": "MiST Score", "setting": "Mphosph10", "result": 0.97}, {"measurement": "Reproducibility", "setting": "Mphosph10", "result": 0.924}, {"measurement": "Specificity", "setting": "Mphosph10", "result": 1}, {"measurement": "Abundance", "setting": "Myef2", "result": "3.8e-06"}, {"measurement": "MiST Score", "setting": "Myef2", "result": 0.993}, {"measurement": "Reproducibility", "setting": "Myef2", "result": 0.998}, {"measurement": "Specificity", "setting": "Myef2", "result": 1}, {"measurement": "Abundance", "setting": "Orc5", "result": "2.13e-06"}, {"measurement": "MiST Score", "setting": "Orc5", "result": 0.985}, {"measurement": "Reproducibility", "setting": "Orc5", "result": 0.971}, {"measurement": "Specificity", "setting": "Orc5", "result": 1}, {"measurement": "Abundance", "setting": "Ppa1", "result": "8.43e-06"}, {"measurement": "MiST Score", "setting": "Ppa1", "result": 0.994}, {"measurement": "Reproducibility", "setting": "Ppa1", "result": 0.999}, {"measurement": "Specificity", "setting": "Ppa1", "result": 1}, {"measurement": "Abundance", "setting": "Ppie", "result": "1.28e-05"}, {"measurement": "MiST Score", "setting": "Ppie", "result": 0.979}, {"measurement": "Reproducibility", "setting": "Ppie", "result": 0.953}, {"measurement": "Specificity", "setting": "Ppie", "result": 1}, {"measurement": "Abundance", "setting": "Rcn2", "result": "1.4e-05"}, {"measurement": "MiST Score", "setting": "Rcn2", "result": 0.992}, {"measurement": "Reproducibility", "setting": "Rcn2", "result": 0.993}, {"measurement": "Specificity", "setting": "Rcn2", "result": 1}, {"measurement": "Abundance", "setting": "Rpl37a", "result": 0.00127}, {"measurement": "MiST Score", "setting": "Rpl37a", "result": 0.911}, {"measurement": "Reproducibility", "setting": "Rpl37a", "result": 0.731}, {"measurement": "Specificity", "setting": "Rpl37a", "result": 1}, {"measurement": "Abundance", "setting": "Sap130", "result": "5.37e-06"}, {"measurement": "MiST Score", "setting": "Sap130", "result": 0.971}, {"measurement": "Reproducibility", "setting": "Sap130", "result": 0.926}, {"measurement": "Specificity", "setting": "Sap130", "result": 1}, {"measurement": "Abundance", "setting": "Sdcbp", "result": "5.96e-05"}, {"measurement": "MiST Score", "setting": "Sdcbp", "result": 0.957}, {"measurement": "Reproducibility", "setting": "Sdcbp", "result": 0.88}, {"measurement": "Specificity", "setting": "Sdcbp", "result": 1}, {"measurement": "Abundance", "setting": "Srrt", "result": "2.3e-06"}, {"measurement": "MiST Score", "setting": "Srrt", "result": 0.913}, {"measurement": "Reproducibility", "setting": "Srrt", "result": 0.953}, {"measurement": "Specificity", "setting": "Srrt", "result": 0.903}, {"measurement": "Abundance", "setting": "Thoc5", "result": "3.93e-06"}, {"measurement": "MiST Score", "setting": "Thoc5", "result": 0.987}, {"measurement": "Reproducibility", "setting": "Thoc5", "result": 0.977}, {"measurement": "Specificity", "setting": "Thoc5", "result": 1}, {"measurement": "Abundance", "setting": "Zfp219", "result": "8.26e-06"}, {"measurement": "MiST Score", "setting": "Zfp219", "result": 0.902}, {"measurement": "Reproducibility", "setting": "Zfp219", "result": 0.836}, {"measurement": "Specificity", "setting": "Zfp219", "result": 0.94}, {"measurement": "Abundance", "setting": "Zwilch", "result": "6.62e-05"}, {"measurement": "MiST Score", "setting": "Zwilch", "result": 0.895}, {"measurement": "Reproducibility", "setting": "Zwilch", "result": 0.729}, {"measurement": "Specificity", "setting": "Zwilch", "result": 0.978}]}
